{"source": "the nanobody polyreactivity screen of Harvey et al. (2022)", "data": [{"assay": "yeast display, Sf9 membrane polyspecificity reagent, FACS + sequencing; frameworks hold sequencing errors", "how_it_was_run": "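Synthetic nanobody libraries on Saccharomyces cerevisiae BJ5465 were galactose-induced for 36–48 hours, stained 1 hour at 4 °C with 10% biotinylated, detergent-solubilized Sf9 membrane reagent and enriched on streptavidin microbeads. FACS then separated cells into low and high (top ~1%) gates by anti-HA (expression) and streptavidin (reagent binding) fluorescence. Genes were colony-PCR amplified, MiSeq 2 × 250 sequenced and CDR-length filtered. A clone's polyreactivity label is that of its gate of origin.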", "values": [{"sequence": "QVQLVESGGGLVQAGGSLRLSCAASGRTFFRNAMGWYRQAPAKERELVAGISRSGGSTYYADSVKGRFTISRDNAQNTFSLEMNSLKPEDSAVYYFAAALYPYPGYEYWGQGTQVTVSS", "polyreactivity (PSR sort gate)": "high polyreactivity"}, {"sequence": "QVQLVESGGGLVQAGGSLRLSCAASGRTFFRNAMGWYRQAPGKERELVAGISRSGGSTYYADSVKGRFTISRDNAKNTVYLQMNSLKPEDTAVYYCAASFRFYRTGYYYWGQGTQVTVSS", "polyreactivity (PSR sort gate)": "high polyreactivity"}, {"sequence": "QVQLVESGGGLVQAGGSLRLSCAASGRTFFRNAMGWYRQAPGKERELVAGMSSSGGRTYADSVKGRYTISRDNAKNTVYLQMNSLKPEDTAVYYCAVQSGWVSGLRYYYWGQGTQVTVSS", "polyreactivity (PSR sort gate)": "high polyreactivity"}, {"sequence": "QVQLVESGGGLVQAGGSLRLSCAASGRTFFRYVMGWYRQAPGKERELVAAISRSGGSTYYADSVKGRFTISRDNAKNTVYLQMNSLKPEDTAVYYCNTVARSTVVPTEFDYWGQGTQVTVSS", "polyreactivity (PSR sort gate)": "high polyreactivity"}, {"sequence": "QVQLVESGGGLVQAGGSLRLSCAASGRTFFSFNAMVWYRQPPGKERELVAAIDGDGGITYYADSVKGRFTISRDNAKNTVYLQMNSLKPEDTAVYYCAAETLYSSAGEDDYWGQGTQVTVSS", "polyreactivity (PSR sort gate)": "low polyreactivity"}, {"sequence": "QVQLVESGGGLVQAGGSLRLSCAASGRTFFSYTMGWYRPAPGKERELFAAIYDSDGRTYYADSVKVRFTISRDNAKNTVYLQMYSLKPEDTAVYYCAAVPDKYWSRVRRYLFEHNYWGQGTKVTVSS", "polyreactivity (PSR sort gate)": "low polyreactivity"}, {"sequence": "QVQLVESGGGLVQAGGSLRLSCAASGRTFFTYAMGWYRQAPGKERELVAAITYRGGGTYYADSVKGRFTISRDNAKNTVYLQMNSLKPEDTAVYYCAAEYWVGVYLYDYWGQGTQVTVSS", "polyreactivity (PSR sort gate)": "high polyreactivity"}, {"sequence": "QVQLVESGGGLVQAGGSLRLSCAASGRTFFVNAMGWYRPAPGKERELVAAITWSGGSTYYADSVKGRFTISRDNAKNTVYLQMNSLKAEDTAVYYCNADYQWYLGGYDYWGQGTQVTVSS", "polyreactivity (PSR sort gate)": "high polyreactivity"}, {"sequence": "QVQLVESGGGLVQAGGSLRLSCAASGRTFFVNAMGWYRQAPGKERELVAAITWSGGSTYYADSVKGRFTISRDNAKNTVYLQMNSLKPEDTAVYYCAAEYYSYSYSYYYYGYEYWGQGTQVTVSS", "polyreactivity (PSR sort gate)": "high polyreactivity"}, {"sequence": "QVQLVESGGGLVQAGGSLRLSCAASGRTFFVYAMGWYRPAPGKERELVASITLSGGSTYYADSVKGRFTISRDKAKNTVYLQINSLKREDTAGYYCAKGWSRDNDLEREDEYWGHGTQVTVSS", "polyreactivity (PSR sort gate)": "low polyreactivity"}, {"sequence": "QVQLVESGGGLVQAGGSLRLSCAASGRTFFVYAMGWYRQAPGKERELVAAISRGGRTYYADSVKGRFTISRDNAKNTVYLQMNSLKPEDTAVYYCAAESWYQQGDYWGQGTQVTVSS", "polyreactivity (PSR sort gate)": "low polyreactivity"}, {"sequence": "QVQLVESGGGLVQAGGSLRLSCAASGRTFFYYAMGWYRQAPGKERELVAAITTDGGTTSYADSVKGRFTISRDNAKNTVSLQMNSLKPEETAVYYCAADASYQYYPYDYWGQGTQVTVSS", "polyreactivity (PSR sort gate)": "low polyreactivity"}, {"sequence": "QVQLVESGGGLVQAGGSLRLSCAASGRTFFYYAMGWYRQAPGKERELVAGITKRGGSTYYADSVKGRFTISRDNAKNSVYLQMNSLKPEDSAVYYCAKSFTQSSTDGYWGQGTQVNVSS", "polyreactivity (PSR sort gate)": "high polyreactivity"}, {"sequence": "QVQLVESGGGLVQAGGSLRLSCAASGRTFFYYAMGWYRQSPGKERELVATITGIGGSTYADSVKGRFTISRDNAKNTVYLQMNSLKPEDTAVYYCNAERGVYWGRYPYKYDYWGQGTQVTVSS", "polyreactivity (PSR sort gate)": "low polyreactivity"}, {"sequence": "QVQLVESGGGLVQAGGSLRLSCAASGRTFFYYTMGWYRQAPGKERELVAAITYSGTSTYYADSVKGRFTISRDNAKNTVYLQMNSLKPEDTAVYYCAADWYVTHQGYTSGIWYVEYDYWGQGTQVTVSS", "polyreactivity (PSR sort gate)": "low polyreactivity"}, {"sequence": "QVQLVESGGGLVQAGGSLRLSCAASGRTFGANAMGWYRQAPGKERELVAASTQDGGSTYYADSVKGRFTISRDNAKNTVYLQMNSLKPEDTAVYYCAADLVVFVQFDVAVDYYYWGQGTQVTVSS", "polyreactivity (PSR sort gate)": "low polyreactivity"}]}]}
